Data taken from the supplement of paper PMC7125110.
± gives the standard error. Variants at the floor of the assay were thinned out.

B1: glmS ribozyme (parent)
chain: AUAAAAGCGCCAGAACUACAGAAAUGUAGUUGACGAGGAGGAGGUUUAUCGAAUUUUCGGCGGAUGCCUCCAAA

Assays:
Details in all cases: with glucosamine-6-phosphate
glucosamine-6-phosphate [1] = variants of: B1; experiment: self-cleavage kobs at 40 uM GlcN6P; higher = faster cleavage; RNA array
Summary of the method: (§1)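 Barcoded glmS ribozyme variants on sequenced MiSeq chips were transcribed in situ by E. coli RNA polymerase and tracked through a hybridised Cy3 probe at 37 °C. Glucosamine-6-phosphate (40 μM to 10 mM) in HEPES/KCl/Mg(OAc)2 buffer was flowed in, and tiles were imaged over ~14 h. Signals were normalised to baseline and to non-cleaving reference variants; per-tile medians were fit to one- or two-exponential decays to give kobs. kcat and KM came from weighted Michaelis–Menten fits across concentrations.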

glucosamine-6-phosphate [2] = variants of: B1; experiment: self-cleavage kobs at 160 uM GlcN6P; higher = faster cleavage; RNA array
Summary of the method: as §1

glucosamine-6-phosphate [3] = variants of: B1; experiment: self-cleavage kobs at 640 uM GlcN6P; higher = faster cleavage; RNA array
Summary of the method: as §1

glucosamine-6-phosphate [4] = variants of: B1; experiment: self-cleavage kobs at 2500 uM GlcN6P; higher = faster cleavage; RNA array
Summary of the method: as §1

glucosamine-6-phosphate [5] = variants of: B1; experiment: self-cleavage kobs at 10000 uM GlcN6P; higher = faster cleavage; RNA array
Summary of the method: as §1

Variant	self-cleavage kobs at 40 uM GlcN6P (glucosamine-6-phosphate [1])	self-cleavage kobs at 160 uM GlcN6P (glucosamine-6-phosphate [2])	self-cleavage kobs at 640 uM GlcN6P (glucosamine-6-phosphate [3])	self-cleavage kobs at 2500 uM GlcN6P (glucosamine-6-phosphate [4])	self-cleavage kobs at 10000 uM GlcN6P (glucosamine-6-phosphate [5])
A15G G37C C58U	< 1e-05 s⁻¹				
A14G C71A	0.000515 ± 6.3e-05 s⁻¹	0.000688 ± 0.00011 s⁻¹	0.00337 ± 0.00085 s⁻¹	0.0123 ± 0.0037 s⁻¹	
A14G C71G	0.00028 ± 3.6e-05 s⁻¹	0.000718 ± 0.00016 s⁻¹	0.00058 ± 7.9e-05 s⁻¹		0.00586 ± 0.0014 s⁻¹
G13C G35C	< 1e-05 s⁻¹	< 1e-05 s⁻¹		< 1e-05 s⁻¹	< 1e-05 s⁻¹
G13C G32C U47C	< 1e-05 s⁻¹				
A14G G44U A64U	< 1e-05 s⁻¹		< 1e-05 s⁻¹	< 1e-05 s⁻¹	
A14G A42G	0.0027 ± 0.00037 s⁻¹	0.00391 ± 0.0011 s⁻¹	0.00956 ± 0.0029 s⁻¹	0.0467 ± 0.022 s⁻¹	0.0773 ± 0.025 s⁻¹
A14C C34A C67U	< 1e-05 s⁻¹			< 1e-05 s⁻¹	< 1e-05 s⁻¹
A12U C16G U56G G59U	< 1e-05 s⁻¹				
G13C U31C C71U	4.32e-05 ± 2e-05 s⁻¹				0.00114 ± 0.00023 s⁻¹
A15C G32U G40U	< 1e-05 s⁻¹				5.23e-05 ± 1.4e-05 s⁻¹
G13C U30C A36G G41C C70A	< 1e-05 s⁻¹	< 1e-05 s⁻¹	< 1e-05 s⁻¹	< 1e-05 s⁻¹	< 1e-05 s⁻¹
A12U A15U C16A G41A G66A	< 1e-05 s⁻¹				
A12G A14G U30A U46C U49C U57C	< 1e-05 s⁻¹			< 1e-05 s⁻¹	< 1e-05 s⁻¹
G13U U45G	< 1e-05 s⁻¹			8.28e-05 ± 2e-05 s⁻¹	0.000133 ± 1.8e-05 s⁻¹
A14G U46G C67A	0.000265 ± 6.3e-05 s⁻¹				0.00474 ± 0.0012 s⁻¹
A12U U49C	< 1e-05 s⁻¹			< 1e-05 s⁻¹	
A12U A14G C68U	0.000526 ± 0.0001 s⁻¹				
A14C A36C C61G	< 1e-05 s⁻¹				
G13A C16G U65G	< 1e-05 s⁻¹				3.8e-05 ± 1.6e-05 s⁻¹
A14U A52C C71G	< 1e-05 s⁻¹		< 1e-05 s⁻¹		
G13U G41U U46G	< 1e-05 s⁻¹				
A15G A53G	0.00127 ± 0.00016 s⁻¹	0.00183 ± 0.00039 s⁻¹	0.0109 ± 0.0017 s⁻¹	0.022 ± 0.0053 s⁻¹	0.0345 ± 0.008 s⁻¹
A12U C50G	4.38e-05 ± 1.4e-05 s⁻¹	0.000613 ± 0.00026 s⁻¹		6.46e-05 ± 2.2e-05 s⁻¹	0.000147 ± 4.2e-05 s⁻¹
G13U G38A A39U	< 1e-05 s⁻¹				
